PMC5006311

Experiment: immunofluorescence confocal microscopy, HEK293
Settings: glycan lost; control: wt hENT1 (HA- or 3xFLAG-tagged)

B1: human equilibrative nucleoside transporter 1 (hENT1): N48Q (protein)
parent chain: MTTSHQPQDRYKAVWLIFFMLGLGTLLPWNFFMTATQYFTNRLDMSQNVSLVTAELSKDAQASAAPAAPLPERNSLSAIFNNVMTLCAMLPLLLFTYLNSFLHQRIPQSVRILGSLVAILLVFLITAILVKVQLDALPFFVITMIKIVLINSFGAILQGSLFGLAGLLPASYTAPIMSGQGLAGFFASVAMICAIASGSELSESAFGYFITACAVIILTIICYLGLPRLEFYRYYQQLKLEGPGEQETKLDLISKGEEPRAGKEESGVSVSNSQPTNESHSIKAILKNISVLAFSVCFIFTITIGMFPAVTVEVKSSIAGSSTWERYFIPVSCFLTFNIFDWLGRSLTAVFMWPGKDSRWLPSLVLARLVFVPLLLLCNIKPRRYLTVVFEHDAWFIFFMAAFAFSNGYLASLCMCFGPKKVKPAEAETAGAIMAFFLCLGLALGAVFSFLFRAIV
localisation_or_trafficking: decreases
